Experimental data published in patent publication US20030186847A1, “Insulin derivatives and synthesis thereof” (priority 2000, published 2003).
Several values for one entry are separate records, joined by “and”; a condition that tells them apart may be missing. Identical values can stand only once.

How the values were obtained:
[1] = target: T1, plasma protein thyroxine binding globulin (TBG) (Homo sapiens, UniProt P05543); experiment: IAsys optical biosensor kinetic binding to immobilized TBG; conditions: control, 500 μg/ml
T1 sequence (P05543 21-415): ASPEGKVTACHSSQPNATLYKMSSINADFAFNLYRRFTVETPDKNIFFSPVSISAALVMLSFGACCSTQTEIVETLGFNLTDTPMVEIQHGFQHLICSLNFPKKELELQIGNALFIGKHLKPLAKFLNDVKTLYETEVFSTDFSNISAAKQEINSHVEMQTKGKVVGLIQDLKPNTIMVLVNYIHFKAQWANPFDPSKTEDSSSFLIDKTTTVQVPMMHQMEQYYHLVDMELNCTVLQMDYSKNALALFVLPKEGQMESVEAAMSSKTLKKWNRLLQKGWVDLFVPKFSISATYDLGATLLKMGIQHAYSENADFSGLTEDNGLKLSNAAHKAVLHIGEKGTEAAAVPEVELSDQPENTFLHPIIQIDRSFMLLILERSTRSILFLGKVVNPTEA
Description: The optical bio-sensor IAsys makes it possible to record biomolecular interactions in real time and thus kinetical studies.
The surface of the cuvette is covered with a carboxymethylated dextran matrix (CMD), to which the plasma protein TBG is immobilized.
Immobilization of TBG to the carboxymethylated matrix is detected via the change of the resonance angle.
For the kinetical studies the Thyroid-Insulin conjugates were injected into the microcuvette in dilution series of 200, 300, 400 and 500 μg/ml in HBS/Tween-buffer at 25° C. To test for reproducibility, all measurements were repeated 3 times.
Determination of “on-rate” constants kon at various ligand concentrations cL allow kon to be plotted against cL according to equation (4). This gives the association rate constant kA from the slope and the dissociation rate constant kD at C2=O. It has, however, to be taken into account that the error of kD becomes too large when kD<0,01 s^−1 (IAsys, METHODS GUIDE).
The association and dissociation curves of the 3 Thyroid-Insulin-conjugates indicated in Table 3 were analyzed with the program Fast-fit.
Evaluation of dissociation was also via single phase curve-fitting, for the same reasons as above.

[2] = system: primary antibody W12 (polyclonal anti-insulin antibody); experiment: Double-antibody radioimmunoassay: inhibition of [125I]insulin binding to primary antibody W12; parameters: species or system guinea-pig; conditions: standard solutions, RIA
Description: The assay was calibrated using insulin standards. […] A double dispenser (Dilutrend, Boehringer Corporation London Ltd) was used to add the appropriate volume of buffer and standard or FPLC fractions into the labelled LP3 tubes. The total volume of each tube was 500 μl. In addition, three tubes of NSB (non-specific binding), containing the standardized HSA concentration, were prepared with, Barbitone/HSA(0.2% w/v) and FPLC/Barbitone/HSA buffers. […] The radioactivity in 100 μl of the resulting tracer solution was counted in the γ-counter, and the counts per minute (cpm) should lie between 3000-5000 cpm. ANSA (2 mg/ml) was dissolved in the solution, and it functioned to displace the T4 moieties on the analogues from the THBPs, since the THBP could be shielding the insulin moiety that was to be assayed. Finally, 100 μl of this solution was added to every tube. The primary antibody, [MUT], is a polyclonal, guinea-pig anti-insulin antibody. […] It was diluted to 1:45,000 in Barbitone/HSA(0.2% w/v) buffer, and 100 μl was added to every tube, except the TC and NSB tubes. […] Finally, the samples, together with the TC and NSB tubes, were counted in the γ-counter using a programme for […] ). Double antibody RIA was used to quantify the immunoreactive insulin (IRI) in the FPLC fractions.

[3] = system: normal human serum (TBG, albumin, prealbumin); experiment: FPLC binding to THBPs after overnight incubation, IRI by RIA: normal human serum; type: in vitro ADME; conditions: normal human serum undiluted
Description: To ascertain the binding of the insulin or the analogue to the thyroid hormone binding proteins (THBPs), they were incubated overnight at 4° C. The bound and unbound species were separated by molecular weight with FPLC.
Solutions (0.5 ml) of THBPs were prepared in FPLC buffer as follows and then vortexed:
It was vortexed and incubated at 4° C. for ≈16 hours or overnight. Before FPLC, it was vortexed again, and filtered through a syringe filter of pore size 0.2 μm (Acrodisc® LC13 PVDF from Gelman, UK) to remove bacteria and serum precipitates.
The fraction tubes (LP3 tubes) were coated with 50 μl 3% (w/v) HSA to prevent the analogues from adsorbing to the tubes' inner surfaces. The fraction size was programmed as 0.50 ml. Immunoreactive insulin in each fraction was assayed with radioimmunoassay on the same day.
IRI content in each fraction was assayed by RIA.
FIGS. 3a-d show the elution profiles of the conjugates after overnight incubation with 5% human serum albumin (HSA). […] The calculated % bound and % free values are included in Table 3. Appearances of the THBPS, as detected by UV absorbance on the original chromatogram (which was not sensitive enough to detect the analogues) are also indicated as arrows on the elution profiles. The shadowed box represents the bound fractions; the clear box represents free fractions.

insulin receptors on LPM = target: T2, insulin receptors on LPM (Rattus norvegicus, UniProt P15127); experiment: Equilibrium binding assay: inhibition of [125I]insulin binding to rat liver plasma membrane (LPM); conditions: absence of THBPs
T2 construct: isolate plasma membrane fractions from fresh rat livers; from tissue; host or cells: rat liver plasma membrane (microsomal light fraction)
Description: Rat liver plasma membrane (LPM) was isolated to be used in equilibrium binding assays as the source of insulin receptors.
This equilibrium binding assay determines the analogues affinity to the insulin receptors on the LPM, both in the presence and absence of the THBPs. […] The amount of bound tracer was counted in the γ counter after separating the bound and free species by centrifugation.
For the binding assays performed in the presence THBP, shifts in the binding curves and the changes in ED50s and RPE are described relative to binging of the same analogue in the absence of THBP.

[4] = target: T3, TBG (thyroxine binding globulin) (Homo sapiens, UniProt P05543); experiment: FPLC binding to THBPs after overnight incubation, IRI by RIA: TBG; conditions: TBG 0.238 μM
T3 sequence (P05543 21-415): T1 sequence (P05543 21-415)

T2 sequence (P15127 27-759 limits assumed): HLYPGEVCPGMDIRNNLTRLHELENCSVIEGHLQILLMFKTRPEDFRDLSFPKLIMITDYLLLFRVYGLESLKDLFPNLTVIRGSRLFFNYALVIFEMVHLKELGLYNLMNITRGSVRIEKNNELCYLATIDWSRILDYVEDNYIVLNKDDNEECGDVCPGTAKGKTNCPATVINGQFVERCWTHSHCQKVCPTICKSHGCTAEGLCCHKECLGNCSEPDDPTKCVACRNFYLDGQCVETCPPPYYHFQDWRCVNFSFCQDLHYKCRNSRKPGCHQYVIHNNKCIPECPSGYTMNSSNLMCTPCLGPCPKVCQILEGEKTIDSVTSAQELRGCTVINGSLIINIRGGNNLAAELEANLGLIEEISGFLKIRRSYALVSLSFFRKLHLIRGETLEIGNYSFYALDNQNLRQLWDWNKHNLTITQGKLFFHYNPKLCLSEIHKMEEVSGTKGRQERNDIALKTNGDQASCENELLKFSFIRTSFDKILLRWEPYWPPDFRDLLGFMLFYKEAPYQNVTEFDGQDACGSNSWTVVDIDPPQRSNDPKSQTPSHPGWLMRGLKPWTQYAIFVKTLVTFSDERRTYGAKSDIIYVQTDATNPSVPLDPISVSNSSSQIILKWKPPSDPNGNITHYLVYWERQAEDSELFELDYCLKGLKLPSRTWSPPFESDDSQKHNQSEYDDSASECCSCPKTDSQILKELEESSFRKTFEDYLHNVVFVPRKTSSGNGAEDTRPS

**Q.** With “H-Ins: unmodified (native, human) insulin used as control and reference” as the substance, how does the “association to immobilized TBG” value [1] read?
**A.** association cannot be observed

**Q.** And the “ED50, inhibition of [125I]insulin binding to W12” value [2]?
**A.** 1.065 nM

**Q.** What about the “Mean % Free (fractions 15.5-25 ml)” value [3] of the same substance?
**A.** 98.39%

**Q.** What about the “Mean % Bound (fractions 5.5-15 ml)” value ([3]; n = 3) of the same substance?
**A.** 1.61 ± 0.47%

**Q.** What about the “Mean ED50 ± SEM” value (insulin receptors on LPM) of the same substance?
**A.** 8.49 ± 0.69 nM

**Q.** What about the “Mean % Free (fractions 15.5-25 ml)” value [4] of the same substance?
**A.** 90.15%

**Q.** And the “Mean % Bound (fractions 5.5-15 ml)” value ([4]; n = 3)?
**A.** 9.85% and 9.85 ± 2.14%
